Assay results from patent US6375944B1, “Methods and compositions for enhancing the immunostimulatory effect of interleukin-12” (The Wistar Institute of Anatomy and Biology, priority 1998, dated 2002).
Read-outs that look alike come from different tables or passages of the source.

Columns and labels:
SCK cells [1] = assay: Irradiated wild-type SCK cell vaccination followed by SCK tumor cell challenge; assay type: in vivo, A/J mice; conditions: SCK-vaccinated mice; at 28 days; rmIL-12 alone, or L-NAME/D-NAME given with rmIL-12
Excerpt: Female A/J mice (8 mice per group) were vaccinated with 10^6 irradiated SCK cells and received either PBS, rmIL-12, rmIL-12+L-NAME or rmIL-12 and D-NAME on days 0-4 and 7-11. Mice were challenged fourteen days after vaccination with 2.5×10^4 SCK cells in the opposite flank. Tumorigenesis was scored daily, as described above.

SCK tumors = assay: Antitumor activity of rmIL-12 against SCK tumors (tumorigenesis scored daily); assay type: in vivo, A/J mice; conditions: L-NAME given with rmIL-12
Experimental: Female A/J mice were injected with 2.5×10^4 SCK cells and either PBS, rmIL-12, rmIL-12+L-NAME or rmIL-12 and D-NAME on days 0-4 and 7-11. Tumorigenesis was scored daily, as described above.

SCK cells [2] = assay: SCK.GM cell vaccination followed by SCK tumor cell challenge; assay type: in vivo, A/J mice; conditions: rmIL-12 250 ng/day ip days 0-4 and 7-11; challenge two weeks after vaccination
Excerpt: A. Female A/J mice were vaccinated with 10^6 irradiated SCK.GM cells suspended in PBS at 10^7 trypan blue-excluding cells/ml. Cells were irradiated with 6000 rads from a ^137Cs source, and mice were vaccinated with 10^6 cells s.c. (day 0). […] Vaccinated and naive A/J mice were challenged fourteen days after vaccination with 2.5×10^4 trypan blue-excluding SCK cells in the opposite flank to assay for the presence of tumor immunity. Tumorigenesis was scored daily.

SCK cells [3] = conditions: cited from earlier work
SCK cells [4] = conditions: cited from earlier work; remark: listed apart in the source
SCK cells [5] = conditions: A/J mice with established SCK immunity; given just prior to tumor cell rechallenge; cited from earlier work
[6] = Splenomegaly after a course of rmIL-12; assay type: in vivo; conditions: iNOS−/− mice, like wild-type mice
allogeneic DTH responses = assay: Delayed type hypersensitivity (DTH) assessment, footpad swelling after alloimmunization with HKB cells; assay type: in vivo, mice
Experimental: A. C57BL/6 (H-2^b) mice were vaccinated with irradiated allogeneic HKB (H-2^a) cells suspended in PBS at 10^7 trypan blue-excluding cells/ml. Cells were irradiated with 6000 rads from a ^137Cs source, and mice were vaccinated with 10^6 cells s.c. (day 0). Mice were given rmIL-12 (Genetics Institute, Andover, Mass.) by intraperitoneal injection (ip) with 500 ng/day on days 0-4 and 7-11 (10 injections). Control mice received phosphate buffered saline (PBS) injections. The vaccinated mice received 1 mg of neutralizing anti-IFNγ (XMG6) and/or anti-TNFα (XT22) monoclonal antibodies (mAbs) on days −1, 3 and 7. Mice were subsequently assayed for delayed type hypersensitivity (DTH) and for mitogen and alloantigen stimulation of splenocytes as described below.
The DTH assessment was performed as follows: For assessment of allogeneic DTH responses, mice were injected with 50 μl PBS containing 10^6 irradiated SCK cells in the right footpad and with 50 μl PBS in the left footpad. Footpad thickness measurements were taken just before injection and 24 hours later using a Starrett pocket gauge (Athol, Mass.). Data are presented as the difference in footpad swelling induced by SCK cells and by PBS.
C57BL/6 mice genetically deficient for IFNγ (IFNγ^−/−) and wild-type C57BL/6 mice were vaccinated with 10^6 irradiated HKB cells and given 500 ng rmIL-12 or phosphate buffered saline (PBS) on days 0-4 and 7-11 or left unvaccinated. They were challenged with 10^6 irradiated SCK cells in the right foot, with PBS control injection in the left foot on day 12. The DTH responses were measured as described above in Part A.
C. To examine the role of TNFα, SV129×C57BL/6 mice deficient for both p55 and p75 TNF receptors (TNFR^−/− mice) and control mice were vaccinated with 10^6 irradiated HKB cells and given 500 ng IL-12 or PBS on days 0-4 and 7-11. DTH assessment was performed on day 12, as described above in Part A.
Footpad injections for DTH assessment were performed on day 12 as described above in the DTH assay. Swelling 24 hours later is presented as the mean (+S.E.) from 3 mice in each treatment group in FIG. 4A.

B1: rmIL-12: recombinant murine Interleukin-12, heterodimeric cytokine, from Genetics Institute (protein, UniProt P43431 23-215; P43432 23-335, looked up)
Interleukin-12 subunit alpha: RVIPVSGPARCLSQSRNLLKTTDDMVKTAREKLKHYSCTAEDIDHEDITRDQTSTLKTCLPLELHKNESCLATRETSSTTRGSCLPPQKTSLMMTLCLGSIYEDLKMYQTEFQAINAALQNHNHQQIILDKGMLVAIDELMQSLNHNGETLRQKPPVGEADPYRVKMKLCILLHAFSTRVVTINRVMGYLSSA
Interleukin-12 subunit beta: MWELEKDVYVVEVDWTPDAPGETVNLTCDTPEEDDITWTSDQRHGVIGSGKTLTITVKEFLDAGQYTCHKGGETLSHSHLLLHKKENGIWSTEILKNFKNKTFLKCEAPNYSGRFTCSWLVQRNMDLKFNIKSSSSSPDSRAVTCGMASLSAEKVTLDQRDYEKYSVSCQEDVTCPTAEETLPIELALEARQQNKYENYSTSFFIRDIIKPDPPKNLQMKPLKNSQVEVSWEYPDSWSTPHSYFSLKFFVRIQRKKEKMKETEEGCNQKGAFLVEKTSTEVQCKGGNVCVQAQDRYYNSSCSKWACVPCRVRS
level of protection (SCK cells [1]): 75% | median days to tumor appearance (SCK tumors; 2.5×10^4 SCK cells, treatment days 0-4 and 7-11, 9 days without rmIL-12): 14 days | delay of tumor appearance vs. untreated mice (SCK tumors; treatment started on day of SCK cell injection): about 5 days | Effect on SCK.GM vaccine protection from tumor cell challenge (SCK cells [2]): severely impaired this protection | Effect on SCK.GM vaccine protection (SCK cells [3]; four weeks after vaccination): had no deleterious effect | Effect on SCK.GM vaccine protection (SCK cells [3]; two weeks after vaccination): abrogated protection | Effect on protection by irradiated SCK cell vaccination (SCK cells [4]; challenged 14 days after vaccination): did not improve protection | Effect on protection by irradiated SCK cell vaccination (SCK cells [4]; challenged at 28 days): did improve protection | Effect on tumor protection (SCK cells [5]): impairs tumor protection | splenomegaly [6]: induced splenomegaly | DTH responses (allogeneic DTH responses; IFNγR1−/− C57BL/6×SV129 mice and controls vaccinated with HKB cells, data not shown): suppressed DTH responses in control but not IFNγR1^−/− mice | DTH responses (allogeneic DTH responses; IFNγ−/− C57BL/6 mice vaccinated with HKB cells, rmIL-12 500 ng days 0-4 and 7-11): had no suppressive effect | DTH responses (allogeneic DTH responses; TNFR−/− (p55 and p75) SV129×C57BL/6 mice vaccinated with HKB cells, 500 ng days 0-4 and 7-11): depressed DTH responses like wild-type | DTH responses (allogeneic DTH responses; iNOS−/− C57BL/6 mice vaccinated with HKB cells, course of rmIL-12): at least as great as those of PBS-treated iNOS^−/− and wild-type mice | DTH responses (allogeneic DTH responses; wild-type C57BL/6 mice vaccinated with irradiated HKB cells, rmIL-12 500 ng/day ip days 0-4 and 7-11, challenge day 12): suppressed DTH responses to background levels
